Source: patent publication US20230235034A1 (University of Pennsylvania, published 2023)

What was measured:
K18 fragment of tau = K18 fragment of tau (UniProt P10636-8 244-372); assay: western blot of tau fragments
Description: (§1) T40 tau monomer or AD-tau were chemically and thermally denatured by 1:10 dilution in 8M guanidine hydrochloride and heating at 100° C. for 15 min, and non-denatured controls were diluted in Tris-buffered saline (TBS) at RT. Denatured or non-denatured tau was then diluted 1:50 in TBS and applied to 0.2 μm nitrocellulose membrane using a vacuum apparatus. For western blots, tau isoforms and fragments were diluted in SDS sample buffer, heated 10 min at 100° C., run on 12.5% SDS-PAGE gels and transferred to 0.2 μm nitrocellulose membrane. […] Infrared dye labeled secondary antibodies (LiCor) were used to detect primary antibody binding, with analysis on a LiCor scanner (LiCor).

ΔK18-P fragment of tau = ΔK18-P fragment of tau (Homo sapiens (Human), UniProt P10636 1-758); assay: western blot of tau fragments
Description: as §1

[1] = target: T1, AD-tau (Alzheimer's brain derived tau) (human, UniProt P10636-8 2-441, limits assumed); assay: sandwich ELISA, tau antigen captured by K9JA
T1 construct: Misfolded fibrillar tau from brain extract, not a single defined polypeptide; also called human AD-brain-derived pathological tau; AD tau PHF
Description: (§2) Blocking was performed with BlockAce solution (Abd Serotec) at 4° C. overnight. […] Plates were washed with PBST and HRP-conjugated anti-mouse (Jackson Immunoresearch) secondary antibodies were applied for 2 h at 22° C. Plates were washed and tetramethylbenzidine peroxidase substrate (KPL laboratories) was added to wells to provide a colorimetric readout, quenched with 10% phosphoric acid and then absorbance measured at 450 nm (Molecular Devices SpectraMax).
(§3) Towards the goal of generating conformation-selective tau mAbs, mice were inoculated with human AD brain-derived extracts enriched in insoluble tau (AD-tau). Hybridoma clones generated from immunized mice were screened by sandwich ELISA to simultaneously assess binding of antibodies to tau monomer, AD-tau seeded recombinant tau preformed fibrils (AD-P1 PFFs), and AD-tau. […] Clones that bound AD-tau and AD-P1 PFFs with greater apparent affinity than tau monomer were prioritized and subsequently sub-cloned by limiting dilutions to monoclonal populations.

[2] = target: T2, AD-P1 PFFs (AD-tau seeded recombinant tau preformed fibrils) (human, UniProt P10636 2-758); assay: sandwich ELISA, tau antigen captured by K9JA
T2 construct: Fibrils made from 36 uM T40 tau (2N4R) and 4 uM AD-tau seeds; also called T40 AD-P1 PFFs
Description: as §2, §3

[3] = target: T3, T40 tau monomer (full length tau protein, 2N4R isoform) (human, UniProt P10636 2-758); assay: sandwich ELISA, tau antigen captured by K9JA
T3 construct: no sentence says so outright; also called T40 monomer; human T40 tau
Description: as §2, §3

Sequence of K18 fragment of tau (P10636 561-689 limits assumed): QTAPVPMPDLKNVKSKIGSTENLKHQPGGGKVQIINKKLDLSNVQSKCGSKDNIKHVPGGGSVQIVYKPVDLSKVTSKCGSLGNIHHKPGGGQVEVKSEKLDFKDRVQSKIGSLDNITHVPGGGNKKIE
T1 sequence (P10636 other isoform, or with tags, fused parts or gaps limits assumed): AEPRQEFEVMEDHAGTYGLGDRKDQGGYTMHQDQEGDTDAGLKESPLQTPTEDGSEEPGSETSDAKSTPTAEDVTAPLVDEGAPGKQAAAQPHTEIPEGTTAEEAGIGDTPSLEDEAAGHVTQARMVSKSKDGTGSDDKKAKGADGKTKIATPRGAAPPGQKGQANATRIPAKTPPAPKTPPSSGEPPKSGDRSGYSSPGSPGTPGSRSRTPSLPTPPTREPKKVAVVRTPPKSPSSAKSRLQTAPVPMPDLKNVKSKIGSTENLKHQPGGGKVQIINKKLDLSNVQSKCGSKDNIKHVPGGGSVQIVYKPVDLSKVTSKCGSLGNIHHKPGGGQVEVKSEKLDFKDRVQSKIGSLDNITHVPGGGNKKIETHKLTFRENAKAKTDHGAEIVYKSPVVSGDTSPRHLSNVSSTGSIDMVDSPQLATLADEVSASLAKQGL
T3 sequence (P10636 other isoform, or with tags, fused parts or gaps limits assumed): as above
T2 sequence (P10636 other isoform, or with tags, fused parts or gaps limits assumed): as above
Sequence of ΔK18-P fragment of tau (P10636 other isoform, or with tags, fused parts or gaps mutant): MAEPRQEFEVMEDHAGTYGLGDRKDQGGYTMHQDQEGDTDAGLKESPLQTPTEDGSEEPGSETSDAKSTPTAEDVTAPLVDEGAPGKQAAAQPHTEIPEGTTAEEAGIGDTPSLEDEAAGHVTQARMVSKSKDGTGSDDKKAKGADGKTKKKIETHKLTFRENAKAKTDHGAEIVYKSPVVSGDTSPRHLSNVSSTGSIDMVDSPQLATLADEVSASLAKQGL

binding result (K18 fragment of tau)	binding result (ΔK18-P fragment of tau)	EC50 [1] [nM]	EC50 [2] [nM]	EC50 [3] [nM]	Binder
no binding (tested: 20 µg/mL)	no binding (tested: 20 µg/mL)	0.17	2.38	4.13	SKT82 (antibody, mouse IgG2a, V domains shown, Mouse hybridoma monoclonal antibody purified from culture medium; also called tau mAb SKT82) VH: EVQLQQSGAELVRSGASVKLSCTASGFNIKDYYMHWVKQRPEQGLEWIGWFDPENGDAEYAPKFQDKATMTADTSSNAAYLQLSSLTSEDTAVYYCNGYLYWGQGTLVTVSS VL: DVLMTQTPLSLPVSLGDQASISCRSSQNIVHNNGNTYLEWYLQKPGQSPKLLIYKVSNRFSGVPDRFSGSGSGTDFTLKISRVEAEDLGIYYCFQGSHVPHTFGGGTRLEIK
no binding (tested: 20 µg/mL)	no binding (tested: 20 µg/mL)	0.1	0.46	12	DMR7 (antibody, mouse IgG1, V domains shown, Mouse hybridoma monoclonal antibody purified from culture medium; also called tau mAb DMR7; MHC2825) VH: QVQLQQPGAELVRPGASVKLSCKASGYIFTTYWMNWVKQRPGQGLEWIAMIDPSDSETHYNQMFKDKATLTVDTSSSTAYMQLSGLTSEDSAVYYCARGEGYWGQGTTLTVSS VL: not shown
